Measurements from patent publication US20230002493A1 (ORIONIS BIOSCIENCES, published 2023).

What was measured:
[1] = target: T1, recombinant PD-L1 extracellular domain fused to the mouse IgG1 Fc domain (SinoBiologicals) (human; mouse, UniProt Q9NZQ7 19-238); assay: BLI (Octet Red 96), PD-L1-mouse IgG1 Fc on AMQ biosensors, VHH dilution series
T1 construct: extracellular domain; also called human PD-L1-mouse Fc; PD-L1-mouse Fc protein; not shown: mouse IgG1 Fc domain
Method: (§1) Affinities of resulting variants were measured using the bio-layer interferometry technology on an Octet Red 96 instrument (ForteBio). In brief, recombinant PD-L1 extracellular domain fused to the mouse IgG1 Fc domain (SinoBiologicals) was immobilized on anti-murine IgG quantitation (AMQ) biosensors (ForteBio). Loaded sensors were incubated with a serial dilution of PD-L1 VHH variant, association and dissociation monitored and kinetic parameters were calculated using the Octet Data Analysis software v10 (ForteBio).

[2] = target: T1, recombinant PD-L1 extracellular domain …; assay: BLI (Octet), recombinant PD-L1-mouse Fc on the sensor, VHH dilution series
Method: as §1
The isomerization motif in all these variants was removed by the D54G mutation. Variants were produced as described above and affinity measured on an Octet instrument using the recombinant PD-L1-mouse Fc protein.

[3] = target: T1, recombinant PD-L1 extracellular domain …; assay: BLI (Octet Red 96), PD-L1-mouse IgG1 Fc on AMQ biosensors, VHH dilution series; remark: listed apart in the source
Method: as §1
(§2) The aspartic acid at position 1 was included to avoid the risk of pyroglutamate formation. […] Resulting mutants were purified and affinities measured as described in Example 1.

[4] = target: T1, recombinant PD-L1 extracellular domain …; assay: BLI (Octet Red 96); ratio of the printed KDs, variant over 2LIG189
Method: as §1, §2

T1 sequence (Q9NZQ7 19-238): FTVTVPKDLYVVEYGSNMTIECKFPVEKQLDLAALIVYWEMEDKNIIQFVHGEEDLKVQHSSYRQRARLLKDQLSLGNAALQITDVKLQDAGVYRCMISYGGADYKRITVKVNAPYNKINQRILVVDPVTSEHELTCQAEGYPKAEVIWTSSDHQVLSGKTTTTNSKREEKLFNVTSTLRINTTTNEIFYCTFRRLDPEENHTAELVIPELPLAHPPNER

Row | Binder | Kd [2] [nM] | koff [2] [s⁻¹] | kon [2] [M⁻¹ s⁻¹] | also measured
1 | 2LIG99 VHH (VHH, Parental PD-L1 VHH; stands here as the molecule on which the mutations are counted; also called wild-type 2LIG99; not shown: C-terminal His-tag) VHH: QVQLQESGGGLVQAGGSLRLSCTASGTIFSINRMDWFRQAPGKQRELVALITSDGTPAYADSAKGRFTISRDNTKKTVSLQMNSLKPEDTAVYYCHVSSGVYNYWGQGTQVTVSS | 0.719 | 0.000721 | 1e+06 | Kd [1]: 0.282 nM; koff [1]: 0.000447 s⁻¹; kon [1]: 1.58e+06 M⁻¹ s⁻¹
2 | P-2056: 2LIG99_OPT_D54G_A63V_K76N_S79Y (Q1D_Q5V_A14P_D54G_A63V_T74S_K76N_K86R_S79Y_Q110L) (VHH, not shown: C-terminal His-tag ('produced as described above')) VHH: DVQLVESGGGLVQPGGSLRLSCTASGTIFSINRMDWFRQAPGKQRELVALITSGGTPAYADSVKGRFTISRDNSKNTVYLQMNSLRPEDTAVYYCHVSSGVYNYWGQGTLVTVSS | 0.735 | 0.000677 | 921000 | –
3 | 2LIG99_OPT_D54G_A63V (VHH) VHH: DVQLVESGGGLVQPGGSLRLSCTASGTIFSINRMDWFRQAPGKQRELVALITSGGTPAYADSVKGRFTISRDNSKKTVSLQMNSLRPEDTAVYYCHVSSGVYNYWGQGTLVTVSS | 1.16 | 0.00151 | 1.3e+06 | –
4 | P-2053: 2LIG99_OPT_D54G_A63V_K76N (Q1D_Q5V_A14P_D54G_A63V_T74S_K76N_K86R_Q110L) (VHH, not shown: C-terminal His-tag ('produced as described above')) VHH: DVQLVESGGGLVQPGGSLRLSCTASGTIFSINRMDWFRQAPGKQRELVALITSGGTPAYADSVKGRFTISRDNSKNTVSLQMNSLRPEDTAVYYCHVSSGVYNYWGQGTLVTVSS | 0.602 | 0.00112 | 1.87e+06 | –
5 | 2LIG189_OPT3 (VHH) VHH: DVQLVESGGGLVQPGGSLRLSCAASGKIFSGNDMGWYRQAPGKQRELVGIITSGGITDYADAVKGRFTISRDNSKNMVYLQMNSLRPEDTAVYYCNMRDRTIWWGQGTLVTVSS | – | – | – | Kd [3]: 4.89 nM; koff [3]: 0.000942 s⁻¹; kon [3]: 193000 M⁻¹ s⁻¹; Ratio KD [4]: 6.18
6 | 2LIG189_OPT4 (VHH) VHH: DVQLVESGGGLVQPGGSLRLSCAASGKIFSGNDMGWYRQAPGKQRELVGIITSGGITDYADAVKGRFTISRDNSKNTVYLQMNSLRPEDTAVYYCNMRDRTIWWGQGTLVTVSS | – | – | – | Kd [3]: 1.74 nM; koff [3]: 0.000301 s⁻¹; kon [3]: 174000 M⁻¹ s⁻¹; Ratio KD [4]: 2.19

Further binders by falling Kd [2], results first:

Row | Kd [2] [nM] | koff [2] [s⁻¹] | kon [2] [M⁻¹ s⁻¹] | Binder | also measured
7 | 0.553 | 0.000856 | 1.55e+06 | 2LIG99_OPT_D54G (VHH) VHH: DVQLVESGGGLVQPGGSLRLSCTASGTIFSINRMDWFRQAPGKQRELVALITSGGTPAYADSAKGRFTISRDNSKKTVSLQMNSLRPEDTAVYYCHVSSGVYNYWGQGTLVTVSS | –
8 | 0.427 | 0.000779 | 1.83e+06 | P-2054: 2LIG99_OPT_D54G_A63V_S79Y (Q1D_Q5V_A14P_D54G_A63V_T74S_K86R_S97Y_Q110L) (VHH, The mutation list prints S97Y where the name prints S79Y; not shown: C-terminal His-tag ('produced as described above')) VHH: DVQLVESGGGLVQPGGSLRLSCTASGTIFSINRMDWFRQAPGKQRELVALITSGGTPAYADSVKGRFTISRDNSKKTVYLQMNSLRPEDTAVYYCHVSSGVYNYWGQGTLVTVSS | –
9 | 0.358 | 0.000599 | 1.67e+06 | P-2051: 2LIG99_OPT_D54G_K76N (Q1D_Q5V_A14P_D54G_T74S_K76N_K86R_Q110L) (VHH, not shown: C-terminal His-tag ('produced as described above')) VHH: DVQLVESGGGLVQPGGSLRLSCTASGTIFSINRMDWFRQAPGKQRELVALITSGGTPAYADSAKGRFTISRDNSKNTVSLQMNSLRPEDTAVYYCHVSSGVYNYWGQGTLVTVSS | –
10 | 0.182 | 0.000279 | 1.54e+06 | P-2052: 2LIG99_OPT_D54G_S79Y (Q1D_Q5V_A14P_D54G_T74S_S79Y_K86R_Q110L) (VHH, not shown: C-terminal His-tag ('produced as described above')) VHH: DVQLVESGGGLVQPGGSLRLSCTASGTIFSINRMDWFRQAPGKQRELVALITSGGTPAYADSAKGRFTISRDNSKKTVYLQMNSLRPEDTAVYYCHVSSGVYNYWGQGTLVTVSS | –
11 | 0.0445 | 5.52e-05 | 1.24e+06 | P-2055: 2LIG99_OPT_D54G_K76N_S79Y (Q1D_Q5V_A14P_D54G_T74S_K76N_K86R_S79Y_Q110L) (VHH, not shown: C-terminal His-tag ('produced as described above')) VHH: DVQLVESGGGLVQPGGSLRLSCTASGTIFSINRMDWFRQAPGKQRELVALITSGGTPAYADSAKGRFTISRDNSKNTVYLQMNSLRPEDTAVYYCHVSSGVYNYWGQGTLVTVSS | –
